From IntAct's records for PubMed 14675534

B1: Partitioning defective protein 3 (Caenorhabditis elegans), Q17353 (parent)
chain: MSASSTSSSSTSCPEGGEPSGSCKSSDEGESTLKKRMQQYGIASGYANSSISTLDRSQYQSLPLNGTRRVTVQFGRMKIVVPWKESDQTVGQLADAALLRYKKARGMANEDRIHVHRLECASDGGILDMDDVLEEVFDLNYDQILAITDEANGGSTTPTYSQIQKQQHHYAQPLPYARKFDGGPSTPIASAFGSVTVNHQAHRAASPYNVGFARSNSRDFAPQPTHSKERRDSVVEVSSFDQIPQSGLRVSTPKPSRQSEDVIDGKPMNQPILRSSLRTEASGSRTEEATPVKQSRVTLSPEVEKKLAEQDERKSERRKHYDKNPGRFARGSDRKSRITDALLDARDRIADQLESQNPAEETKSQMIRVKIDQGPMPGTSLVTFPPIPEKSENEKQLGIEVNAVFDESSELPGTSEPTKLSSVQIMKIEDGGRIAKDGRIRVGDCIVAIDGKPVDQMSIIRVRASISDLAAVTSRPVTLIINRSLESFLEQESSAKPIQSALQQANTQYIGHTTVVELIKSSNGFGFTVTGRETAKGERLFYIGTVKPYGVALGHLKSGDRLLEINGTPTGQWTQSEIVEKLKETMVGEKIKFLVSRVSQSAIMSTSASSENKENEETLKVVEEEKIPQKLPLPALMTPPVPKDTPALSPSGASRFEIVIPFINGSSSAGLGVSLKARVSKKSNGSKVDCGIFIKNVMHGGAAFKEGGLRVDDRIVGVEDIDLEPLDNREAQAALAKKLKEVGMISSNVRLTISRYNECNPGQISRDLSRITVDASSPSPSSRMSSHTAPDSLLPSPATRGTSSSGADSSHSRQSSASSAVPAVPARLTERDSIVSDGTSRNDESELPDSADPFNREGLGRKSLSEKRGMGAAADPQHIKLFQDIKHQRQNSAPTSSTQKRSKSQPRSSSQRNYRSPMKLVDLPTTAAASASTNSQNLDDSDMLNRRSQSMESINRPVESILRGTGQIPTGSSSKVQFMQAASPDQHPFPPGAALLRLKNEESRSRDKSRRKSMGNPFSAMRNFFGFGSKSRDASPEKTPTESVQLRSVERPKSIIDERNNGSSERAPPPLPPHQSQRRGSGGNVFVDYGEPYGLIPQYPHNTTSGYESYADSELYDRYAAHRYHPRGGPIIDEDEYIYRQQSTSGNSPINTSSYVNYGLPASNAYHVGSRIPPQTSSGSISKTSGAMRRVYPAEYDEDVAYHQQIPQQSTRYQQGSGSGRGNADYHHMFNSWFAYTGGGAVGAAPVIKSSYGSSPVRIAAASAIERGESFVVEPVSGSSASATDRRGRSTSSGAVASGSSSTGFQYAAKEKYADARSGKFNGGSTRLFIPRHGGGLSAAAFATNFGGEAYETRGGGAGGSPSQYRRRDQGPPHRFPQY
partner: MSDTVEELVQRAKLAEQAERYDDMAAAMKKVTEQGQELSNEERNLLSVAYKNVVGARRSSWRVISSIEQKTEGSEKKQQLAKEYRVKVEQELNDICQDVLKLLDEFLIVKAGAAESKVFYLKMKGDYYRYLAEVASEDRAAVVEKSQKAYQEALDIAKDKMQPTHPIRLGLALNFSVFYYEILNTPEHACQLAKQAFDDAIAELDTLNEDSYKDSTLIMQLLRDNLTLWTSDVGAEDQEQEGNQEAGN

Variants of: B1
Conditions: with 14331_caeel par-5, P41932

Variant	effect of a mutation on the interaction
S960A	decreasing interaction
